Measured values published in patent publication US20240043824A1 (UNIVERSITE DE LORRAINE, published 2024).

Biological target: the molecule itself
Test: ITC dilution of a 100 µM stock at 25° C.; self-association of the decamer, no CTC could be determined

B1: Prx1 from Pyrococcus furiosus (Pfu-Prx) in which the cysteine residues have been mutated into serine residues (enzyme)
chain: MIVIGEKFPEVEVKTTHGVIKLPDHFTKQGKWFMLFSHPADFTPVSTTEFYGLQIRLEKFRELGVEPIGLSVDQVFSHLKWMEWIKEKLGVEIEFPVIADDRGDLAEKLGMIPSGSTITARAVFIVDDKGIIRAIVYYPAEVGRDWDEILRLVKALKISTEKGVALPHKWPNNELIGDKVIVPPASSVEQIKEREEAKAKGEIESYDWWFSYKKLE
notes: not described
  binding result: binds
